The supplement of paper PMC9112550, “Optimization of the antimicrobial peptide Bac7 by deep mutational scanning” (BMC Biology, 2022)
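Further: peptides expressed intracellularly from a pBAD plasmid library in pooled LB shake-flask culture, induced with 0.3% L-arabinose, DNA abundance read by NGS, three biological replicates, DESeq2 with apeglm shrinkage.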

These sequences were tested on Escherichia coli TOP10 (assay: shrunken log2 fold change of peptide-encoding DNA abundance (4.5 h post-induction vs induction); higher = less antimicrobial activity (less host growth inhibition)). Settings: time post-induction: 4.5 h; library: site-saturation at positions 5, 18, 19, 20.
In the case of RRIRVRPPRLPRPRPRPSVGPRP, the “shrunken log2 fold change” value is reported as -0.659. In the case of RRIRVRPPRLPRPRPRPWHNPRP, the “shrunken log2 fold change” value is reported as -0.49. In the case of RRIRNRPPRLPRPRPRPQEGPRP, the “shrunken log2 fold change” value is reported as 0.0303. RRIRSRPPRLPRPRPRPEDRPRP was tested, and the “shrunken log2 fold change” value was 0.972. For RRIRHRPPRLPRPRPRPKNKPRP, the “shrunken log2 fold change” value was -0.521. For RRIRFRPPRLPRPRPRPMPIPRP, the “shrunken log2 fold change” value was 0.0193. With RRIRTRPPRLPRPRPRPNHCPRP the “shrunken log2 fold change” value was -0.479. For RRIRHRPPRLPRPRPRPWQSPRP, the “shrunken log2 fold change” value was -0.0359. RRIRCRPPRLPRPRPRPITSPRP was tested, and the “shrunken log2 fold change” value was 0.0215. With RRIRLRPPRLPRPRPRPMGRPRP the “shrunken log2 fold change” value was 0.0605. With RRIRFRPPRLPRPRPRPTDQPRP the “shrunken log2 fold change” value was -0.0655. With RRIRQRPPRLPRPRPRPHEWPRP the “shrunken log2 fold change” value was 0.114. For RRIRRRPPRLPRPRPRPRNDPRP, the “shrunken log2 fold change” value was 0.195. RRIRERPPRLPRPRPRPNRWPRP was tested, and the “shrunken log2 fold change” value was 0.0283. For RRIRGRPPRLPRPRPRPIYIPRP, the “shrunken log2 fold change” value was -0.0529. With RRIRWRPPRLPRPRPRPMLGPRP the “shrunken log2 fold change” value was 0.464. RRIRWRPPRLPRPRPRPMKCPRP was tested, and the “shrunken log2 fold change” value was -0.0018. RRIRLRPPRLPRPRPRPKRTPRP was tested, and the “shrunken log2 fold change” value was 0.21. With RRIRCRPPRLPRPRPRPDHRPRP the “shrunken log2 fold change” value was -0.106. In the case of RRIRKRPPRLPRPRPRPCPRPRP, the “shrunken log2 fold change” value is reported as 0.163. For RRIRPRPPRLPRPRPRPHKGPRP, the “shrunken log2 fold change” value was 0.0224. For RRIRARPPRLPRPRPRPQDAPRP, the “shrunken log2 fold change” value was 0.215. In the case of RRIRNRPPRLPRPRPRPQLPPRP, the “shrunken log2 fold change” value is reported as -0.352. For RRIRGRPPRLPRPRPRPVIEPRP, the “shrunken log2 fold change” value was 0.599. With RRIRDRPPRLPRPRPRPSYYPRP the “shrunken log2 fold change” value was -0.0757. In the case of RRIRSRPPRLPRPRPRPVDSPRP, the “shrunken log2 fold change” value is reported as -0.0776. RRIRCRPPRLPRPRPRPRTPPRP was tested, and the “shrunken log2 fold change” value was 0.571. For RRIRKRPPRLPRPRPRPPTGPRP, the “shrunken log2 fold change” value was 0.265. In the case of RRIRWRPPRLPRPRPRPAPFPRP, the “shrunken log2 fold change” value is reported as 0.0259. For RRIRARPPRLPRPRPRPFCFPRP, the “shrunken log2 fold change” value was 0.42. In the case of RRIRMRPPRLPRPRPRPGDYPRP, the “shrunken log2 fold change” value is reported as 0.0762. For RRIRDRPPRLPRPRPRPATLPRP, the “shrunken log2 fold change” value was -0.146. For RRIRTRPPRLPRPRPRPDFSPRP, the “shrunken log2 fold change” value was -0.0283. With RRIRCRPPRLPRPRPRPPACPRP the “shrunken log2 fold change” value was 0.479. With RRIRHRPPRLPRPRPRPDRAPRP the “shrunken log2 fold change” value was 0.217. In the case of RRIRTRPPRLPRPRPRPMHTPRP, the “shrunken log2 fold change” value is reported as 0.0134. With RRIRRRPPRLPRPRPRPWIVPRP the “shrunken log2 fold change” value was 3. With RRIRDRPPRLPRPRPRPIKSPRP the “shrunken log2 fold change” value was -0.236. For RRIRTRPPRLPRPRPRPYAAPRP, the “shrunken log2 fold change” value was -0.445. With RRIRWRPPRLPRPRPRPAKSPRP the “shrunken log2 fold change” value was 0.228. In the case of RRIRLRPPRLPRPRPRPKLKPRP, the “shrunken log2 fold change” value is reported as 0.295. For RRIRHRPPRLPRPRPRPPAFPRP, the “shrunken log2 fold change” value was 0.0237. For RRIRSRPPRLPRPRPRPKSWPRP, the “shrunken log2 fold change” value was 0.392. In the case of RRIRRRPPRLPRPRPRPIKQPRP, the “shrunken log2 fold change” value is reported as 0.197. With RRIRMRPPRLPRPRPRPDFGPRP the “shrunken log2 fold change” value was 0.0563. In the case of RRIRARPPRLPRPRPRPLCIPRP, the “shrunken log2 fold change” value is reported as -0.143. In the case of RRIRQRPPRLPRPRPRPLDQPRP, the “shrunken log2 fold change” value is reported as -0.635. With RRIRLRPPRLPRPRPRPCYGPRP the “shrunken log2 fold change” value was -0.0306. In the case of RRIRVRPPRLPRPRPRPSESPRP, the “shrunken log2 fold change” value is reported as 0.0556. With RRIRWRPPRLPRPRPRPFWFPRP the “shrunken log2 fold change” value was -0.119. In the case of RRIRTRPPRLPRPRPRPKDPPRP, the “shrunken log2 fold change” value is reported as 0.0667. In the case of RRIRDRPPRLPRPRPRPGCCPRP, the “shrunken log2 fold change” value is reported as 0.617. With RRIRPRPPRLPRPRPRPNPEPRP the “shrunken log2 fold change” value was -0.0226. In the case of RRIRWRPPRLPRPRPRPHTHPRP, the “shrunken log2 fold change” value is reported as -0.268. With RRIRYRPPRLPRPRPRPSMMPRP the “shrunken log2 fold change” value was -1.21. In the case of RRIRGRPPRLPRPRPRPDYFPRP, the “shrunken log2 fold change” value is reported as -0.0114. RRIRDRPPRLPRPRPRPQKEPRP was tested, and the “shrunken log2 fold change” value was -0.0595. For RRIRRRPPRLPRPRPRPCLKPRP, the “shrunken log2 fold change” value was -0.184. With RRIRERPPRLPRPRPRPAQDPRP the “shrunken log2 fold change” value was 0.00521. With RRIRARPPRLPRPRPRPNREPRP the “shrunken log2 fold change” value was 0.226. With RRIRFRPPRLPRPRPRPGIFPRP the “shrunken log2 fold change” value was -0.218. In the case of RRIRVRPPRLPRPRPRPGFRPRP, the “shrunken log2 fold change” value is reported as 0.205. RRIRTRPPRLPRPRPRPYYVPRP was tested, and the “shrunken log2 fold change” value was -1.13. With RRIRVRPPRLPRPRPRPLVAPRP the “shrunken log2 fold change” value was 0.196. With RRIRPRPPRLPRPRPRPVYDPRP the “shrunken log2 fold change” value was -0.711. RRIRQRPPRLPRPRPRPDFIPRP was tested, and the “shrunken log2 fold change” value was -0.345. In the case of RRIRIRPPRLPRPRPRPGFAPRP, the “shrunken log2 fold change” value is reported as 0.282. For RRIRKRPPRLPRPRPRPLCFPRP, the “shrunken log2 fold change” value was 0.188. RRIRYRPPRLPRPRPRPSYHPRP was tested, and the “shrunken log2 fold change” value was -1.21. For RRIRDRPPRLPRPRPRPGIFPRP, the “shrunken log2 fold change” value was 0.0908. In the case of RRIRKRPPRLPRPRPRPQDYPRP, the “shrunken log2 fold change” value is reported as 0.118. RRIRQRPPRLPRPRPRPCGMPRP was tested, and the “shrunken log2 fold change” value was -0.199. With RRIRHRPPRLPRPRPRPWHYPRP the “shrunken log2 fold change” value was 0.137. RRIRYRPPRLPRPRPRPYLNPRP was tested, and the “shrunken log2 fold change” value was -0.802. With RRIRCRPPRLPRPRPRPCQIPRP the “shrunken log2 fold change” value was 0.0258. With RRIRFRPPRLPRPRPRPPVFPRP the “shrunken log2 fold change” value was 0.138. For RRIRARPPRLPRPRPRPISPPRP, the “shrunken log2 fold change” value was -0.141. In the case of RRIRGRPPRLPRPRPRPINDPRP, the “shrunken log2 fold change” value is reported as -0.211. RRIRDRPPRLPRPRPRPTQEPRP was tested, and the “shrunken log2 fold change” value was 0.604. RRIRGRPPRLPRPRPRPYQSPRP was tested, and the “shrunken log2 fold change” value was 0.00308. RRIRPRPPRLPRPRPRPRWHPRP was tested, and the “shrunken log2 fold change” value was 0.186. RRIRGRPPRLPRPRPRPCESPRP was tested, and the “shrunken log2 fold change” value was 0.169. With RRIRMRPPRLPRPRPRPRSWPRP the “shrunken log2 fold change” value was 1.42. In the case of RRIRRRPPRLPRPRPRPPKDPRP, the “shrunken log2 fold change” value is reported as 0.472. In the case of RRIRWRPPRLPRPRPRPCKLPRP, the “shrunken log2 fold change” value is reported as -0.694. In the case of RRIRQRPPRLPRPRPRPNHIPRP, the “shrunken log2 fold change” value is reported as -0.526. With RRIRGRPPRLPRPRPRPGSRPRP the “shrunken log2 fold change” value was 0.565. For RRIRDRPPRLPRPRPRPPPFPRP, the “shrunken log2 fold change” value was 0.321. For RRIRDRPPRLPRPRPRPARAPRP, the “shrunken log2 fold change” value was 0.928. RRIRNRPPRLPRPRPRPFSGPRP was tested, and the “shrunken log2 fold change” value was -0.277. In the case of RRIRFRPPRLPRPRPRPSDQPRP, the “shrunken log2 fold change” value is reported as -0.302. For RRIRWRPPRLPRPRPRPAVGPRP, the “shrunken log2 fold change” value was 0.229. In the case of RRIRYRPPRLPRPRPRPECVPRP, the “shrunken log2 fold change” value is reported as -0.282. In the case of RRIRHRPPRLPRPRPRPLVGPRP, the “shrunken log2 fold change” value is reported as 0.00867. RRIRGRPPRLPRPRPRPDREPRP was tested, and the “shrunken log2 fold change” value was 0.34. With RRIRQRPPRLPRPRPRPFANPRP the “shrunken log2 fold change” value was 0.0297. RRIRKRPPRLPRPRPRPRLRPRP was tested, and the “shrunken log2 fold change” value was 0.485. With RRIRCRPPRLPRPRPRPYCPPRP the “shrunken log2 fold change” value was -0.968. For RRIRWRPPRLPRPRPRPTNEPRP, the “shrunken log2 fold change” value was 0.225. RRIRKRPPRLPRPRPRPPNEPRP was tested, and the “shrunken log2 fold change” value was 1.68. RRIRCRPPRLPRPRPRPKNGPRP was tested, and the “shrunken log2 fold change” value was 0.0379. In the case of RRIRMRPPRLPRPRPRPRPCPRP, the “shrunken log2 fold change” value is reported as 0.586. In the case of RRIRARPPRLPRPRPRPYDMPRP, the “shrunken log2 fold change” value is reported as -0.0195. For RRIRHRPPRLPRPRPRPTRYPRP, the “shrunken log2 fold change” value was -0.453. In the case of RRIRPRPPRLPRPRPRPKKAPRP, the “shrunken log2 fold change” value is reported as 0.129. For RRIRHRPPRLPRPRPRPSEFPRP, the “shrunken log2 fold change” value was -0.477. RRIRWRPPRLPRPRPRPPLVPRP was tested, and the “shrunken log2 fold change” value was 0.443. With RRIRQRPPRLPRPRPRPTPYPRP the “shrunken log2 fold change” value was -0.266. With RRIRARPPRLPRPRPRPDGKPRP the “shrunken log2 fold change” value was 0.154.
